Experimental data reported in PMC5440646, “T Cell Costimulation by CD6 Is Dependent on Bivalent Binding of a GADS/SLP-76 Complex” (Molecular and Cellular Biology, 2017).

B1: human CD6 fused to EGFP [human] / T cell-specific adaptor protein (TSAd), endogenous [human (endogenous in Jurkat)] (parent)
chain 1: not shown
chain 2: HPSPAPPDQLNTSSAESELWEPGERLPVRLTNGSSSCSGTVEVRLEASWEPACGALWDSRAAEAVCRALGCGGAEAASQLAPPTPELPPPPAAGNTSVAANATLAGAPALLCSGAEWRLCEVVEHACRSDGRRARVTCAENRALRLVDGGGACAGRVEMLEHGEWGSVCDDTWDLEDAHVVCRQLGCGWAVQALPGLHFTPGRGPIHRDQVNCSGAEAYLWDCPGLPGQHYCGHKEDAGAVCSEHQSWRLTGGADRCEGQVEVHFRGVWNTVCDSEWYPSEAKVLCQSLGCGTAVERPKGLPHSLSGRMYYSCNGEELTLSNCSWRFNNSNLCSQSLAARVLCSASRSLHNLSTPEVPASVQTVTIESSVTVKIENKESRELMLLIPSIVLGILLLGSLIFIAFILLRIKGKYALPVMVNHQHLPTTIPAGSNSYQPVPITIPKEVFMLPIQVQAPPPEDSDSGSDSDYEHYDFSAQPPVALTTFYNSQRHRVTDEEVQQSRFQMPPLEEGLEELHASHIPTANPGHCITDPPSLGPQYHPRSNSESSTSSGEDYCNSPKSKLPPWNPQVFSSERSSFLEQPPNLELAGTQPAFSAGPPADDSSSTSSGEWYQNFQPPPQPPSEEQFGCPGSPSPQPDSTDNDDYDDISAA
B2: human CD6 fused to EGFP [human] / GRB2-related adaptor downstream of Shc (GADS), endogenous [human (endogenous in Jurkat)] (parent)
chain 1: MEAVAKFDFTASGEDELSFHTGDVLKILSNQEEWFKAELGSQEGYVPKNFIDIQFPKWFHEGLSRHQAENLLMGKEVGFFIIRASQSSPGDFSISVRHEDDVQHFKVMRDNKGNYFLWTEKFPSLNKLVDYYRTNSISRQKQIFLRDRTREDQGHRGNSLDRRSQGGPHLSGAVGEEIRPSMNRKLSDHPPTLPLQQHQHQPQPPQYAPAPQQLQQPPQQRYLQHHHFHQERRGGSLDINDGHCGTGLGSEMNAALMHRRHTDPVQLQAAGRVRWARALYDFEALEDDELGFHSGEVVEVLDSSNPSWWTGRLHNKLGLFPANYVAPMTR
chain 2: B1 chain 2
B3: human CD6 fused to EGFP [human] / SH2 domain-containing leukocyte molecule of 76 kDa (SLP-76), endogenous [human (endogenous in Jurkat)] (parent)
chain 1: MALRNVPFRSEVLGWDPDSLADYFKKLNYKDCEKAVKKYHIDGARFLNLTENDIQKFPKLRVPILSKLSQEINKNEERRSIFTRKPQVPRFPEETESHEEDNGGWSSFEEDDYESPNDDQDGEDDGDYESPNEEEEAPVEDDADYEPPPSNDEEALQNSILPAKPFPNSNSMYIDRPPSGKTPQQPPVPPQRPMAALPPPPAGRNHSPLPPPQTNHEEPSRSRNHKTAKLPAPSIDRSTKPPLDRSLAPFDREPFTLGKKPPFSDKPSIPAGRSLGEHLPKIQKPPLPPTTERHERSSPLPGKKPPVPKHGWGPDRRENDEDDVHQRPLPQPALLPMSSNTFPSRSTKPSPMNPLPSSHMPGAFSESNSSFPQSASLPPYFSQGPSNRPPIRAEGRNFPLPLPNKPRPPSPAEEENSLNEEWYVSYITRPEAEAALRKINQDGTFLVRDSSKKTTTNPYVLMVLYKDKVYNIQIRYQKESQVYLLGTGLRGKEDFLSVSDIIDYFRKMPLLLIDGKNRGSRYQCTLTHAAGYP
chain 2: B1 chain 2

Variants of: B1
Assay: co-immunoprecipitation (anti-CD6 IP), Western blot densitometry
Conditions: with T cell-specific adaptor protein (TSAd), Jurkat cells, 3 × 10^6 cells per sample, pervanadate treated, CD6 MAb (MEM-98), three experiments, read off a plot

response [AU]	Variant
4.4	chain 2 Y612F Y645F
8.8	chain 2 Y612F
5.2	chain 2 Y645F

Variants of: B2
Assay: as above
Conditions: with GRB2-related adaptor downstream of Shc (GADS), Jurkat cells, 3 × 10^6 cells per sample, pervanadate treated, CD6 MAb (MEM-98), three experiments, read off a plot

response [AU]	Variant
0.9	chain 2 Y612F Y645F
10	chain 2 Y612F
9.1	chain 2 Y645F

Variants of: B3
Assay: as above
Conditions: with SH2 domain-containing leukocyte molecule of 76 kDa (SLP-76), Jurkat cells, 3 × 10^6 cells per sample, pervanadate treated, CD6 MAb (MEM-98), three experiments, read off a plot

response [AU]	Variant
1.5	chain 2 Y645F
6.4	chain 2 Y612F
0.5	chain 2 Y612F Y645F
